Assay [1] concerns the target HA of Ft. Monmouth influenza virus (on virions) (influenza virus strain Ft. Monmouth). Put plainly: cell-based or functional assay.
For assay [2] the target is unchanged. As to the kind of experiment: cell-based or functional assay. The source holds these as a separate data set.

Where two headings read alike, the source gives them in different places.

For the molecule CIEQSFTTLFACQTAAEIWRAFGYTVKIMVDNGNCRLHVC (designed binder, modifications not checked) [HB1.6928.2.3], in assay [1], the EC50 values for inhibition of viral replication in vitro is 0.02 ng/mL.

Consider TIEQSFTTLFAAQTAAEIWRAFGYTVKIMQDNGNWRLHVT (designed binder) [CS15990 A13_r31_TAWQT Thr-40-Thr], for which, in assay [2], the EC50 values for inhibition of viral replication in vitro turned out to be 2 ng/mL.
